Laboratory results reported in US20100322897A1.

Target: human IL-17 receptor (IL-17R) on primary human bronchial epithelial (HBE) cells (human) (UniProt Q96F46)
Experiment: cell-based or functional assay

| inhibition of DEFB104 mRNA upregulation by 100 ng/ml IL-17A in HBE cells after preincubation with 2 ug/ml anti-IL-17R antibody [%] | inhibition of DEFB104 mRNA upregulation by 100 ng/ml IL-17F in HBE cells after preincubation with 2 ug/ml anti-IL-17R antibody [%] | Substance |
| --- | --- | --- |
| 62.5 |  | IL-17A (R&D Systems) (from UniProt Q16552 20-155) (ligand) |
|  | 77.6 | human IL-17F (R&D Systems) (from UniProt Q96PD4 31-163) (ligand) |
